Values joined by “and” are separate entries in the source; they are usually repeats but may differ in a detail not shown here. Equal entries are not always repeated. Where two headings read alike, the source gives them in different places.
Tests used:
Gal-9 [1] = target: T1, Gal-9 (Homo sapiens, UniProt O00182, A222P/DEL149-219); assay: competitive ELISA, inhibition of galectin binding to immobilized asialofetuin; settings: competitive ELISA vs immobilized ASF; 0.5 μM Gal-9; at least quadruplicate
T1 construct: Full-length recombinant human galectins (Gal-1, Gal-3, Gal-4, Gal-8, and Gal-9) for ELISA assays; made in house; host or cells: E. coli Rosetta 2(DE3)pLysS
Method: (§3) The inhibitory potential of the prepared glycan library and the respective multivalent neo-glycoproteins with Gal-1, -3, -4, -8, and -9 was evaluated using a competitive ELISA assay as described by Vašíček et al. Asialofetuin (ASF; 0.1 μM in PBS, 50 μL/well) was immobilized onto microtiter plates (Nunc Immuno Sorb, ThermoFisher Scientific, USA) overnight at 4 °C. Wells were subsequently washed three times with PBS containing 0.05%, v/v, Tween-20 (250 μL/wash). Each assay step was followed by a washing step to ensure the thorough removal of unbound reagents. Blocking was performed using 2%, w/v, BSA in PBS (250 μL/well) for 1 h at room temperature. Serial dilutions of the inhibitors prepared in EPBS buffer (PBS containing 2 mM EDTA) were incubated with a constant concentration of galectin (2.5 μM Gal-1, Gal-3, and Gal-4; 0.5 μM Gal-8 and Gal-9) for 2 h. […] Residual galectin bound to ASF was detected using the anti-His-tag antibody conjugated to horseradish peroxidase (Santa Cruz Biotechnology, 1:999 dilution in PBS). Detection was achieved by adding 50 μL of TMB One substrate solution (Kem-En-Tech, Denmark), which developed a blue color that turned yellow upon the addition of 50 μL of 3 M HCl. Absorbance at 450 nm was measured using a microplate reader (Sunrise, Tecan Group Ltd., Switzerland) reflecting the amount of galectin bound to the wells. Half-maximal inhibitory concentration (IC50) values were calculated by nonlinear regression (dose–response inhibition with variable slope) of sigmoidal curves using GraphPad Prism version 8.4.3 (GraphPad Software, USA).
(§4) Serially diluted ligands and NGPs were incubated with individual galectin species in the wells coated with asialofetuin (ASF). The remaining galectin bound to the immobilized ASF was detected using an anti-His6 antibody.

Gal-8 [2] = target: T2, Gal-8 (Homo sapiens, UniProt O00214); assay: as above; settings: competitive ELISA vs immobilized ASF; 0.5 μM Gal-8; at least quadruplicate
T2 construct: Full-length recombinant human galectins (Gal-1, Gal-3, Gal-4, Gal-8, and Gal-9) for ELISA assays; made in house; host or cells: E. coli Rosetta 2(DE3)pLysS
T2 sequence (O00214 1-317): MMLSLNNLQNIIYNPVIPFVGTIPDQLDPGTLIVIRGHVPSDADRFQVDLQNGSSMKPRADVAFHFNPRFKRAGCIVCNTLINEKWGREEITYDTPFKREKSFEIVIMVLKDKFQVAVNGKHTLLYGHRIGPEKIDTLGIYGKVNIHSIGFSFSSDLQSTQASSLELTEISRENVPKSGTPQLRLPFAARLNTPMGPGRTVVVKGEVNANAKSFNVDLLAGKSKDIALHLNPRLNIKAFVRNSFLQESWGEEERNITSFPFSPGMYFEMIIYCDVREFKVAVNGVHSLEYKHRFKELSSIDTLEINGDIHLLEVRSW
Method: as §3, §4

Gal-1 = Gal-1 (Homo sapiens, UniProt P09382, C3S); assay: as above
Method: as §3, §4

Gal-4 [3] = target: T3, Gal-4 (Homo sapiens, UniProt P56470); set-up: method as in previously published by us; settings: competitive ELISA vs immobilized ASF; footnote b; ref previously published by us; cited from earlier work
T3 construct: Full-length recombinant human galectins (Gal-1, Gal-3, Gal-4, Gal-8, and Gal-9) for ELISA assays; made in house; host or cells: E. coli Rosetta 2(DE3)pLysS
T3 sequence (P56470 1-323): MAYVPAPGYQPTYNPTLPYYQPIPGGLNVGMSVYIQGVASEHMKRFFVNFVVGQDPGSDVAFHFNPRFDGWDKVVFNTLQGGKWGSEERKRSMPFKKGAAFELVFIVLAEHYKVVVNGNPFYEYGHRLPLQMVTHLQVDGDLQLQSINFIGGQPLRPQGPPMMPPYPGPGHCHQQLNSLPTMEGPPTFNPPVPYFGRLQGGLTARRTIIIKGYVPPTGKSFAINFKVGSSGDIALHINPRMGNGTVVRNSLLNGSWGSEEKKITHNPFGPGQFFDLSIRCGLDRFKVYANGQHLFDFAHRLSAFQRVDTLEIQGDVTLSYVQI

Gal-3 = Gal-3 (Homo sapiens, UniProt P17931); assay: competitive ELISA, inhibition of galectin binding to immobilized asialofetuin
Method: as §3, §4

Gal-8C [4] = target: T4, Gal-8C (Homo sapiens, UniProt O00214); assay: direct ELISA, galectin binding to immobilized asialofetuin; settings: AVI-tagged Gal-8C, read-out: KD for ASF, AVI-tag
T4 construct: Tandem-repeat galectins consist of an N-terminal and a C-terminal carbohydrate recognition domain (CRD) interconnected with a peptide linker; His-tag; made in house; host or cells: E. coli
T4 sequence (O00214 187-317 limits assumed): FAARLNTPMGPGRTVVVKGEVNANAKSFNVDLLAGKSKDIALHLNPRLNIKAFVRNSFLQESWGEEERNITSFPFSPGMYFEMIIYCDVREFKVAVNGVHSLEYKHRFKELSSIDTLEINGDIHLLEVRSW
Method: (§1) detailed in the main text.
(§2) respective galectin in EPBS (50 μL/well).

Gal-9C [5] = target: T5, Gal-9C (Homo sapiens, UniProt O00182, A222P); assay: as above; settings: AVI-tagged Gal-9C, read-out: KD for ASF, AVI-tag
T5 construct: Tandem-repeat galectins consist of an N-terminal and a C-terminal carbohydrate recognition domain (CRD) interconnected with a peptide linker; His-tag; made in house; host or cells: E. coli
Method: as §1, §2

Gal-4 [6] = target: T3, Gal-4; assay: as above; settings: AVI-tagged Gal-4, read-out: KD for ASF, AVI-tag
Method: as §1, §2

Gal-4N [7] = target: T6, Gal-4N (Homo sapiens, UniProt P56470); assay: as above; settings: AVI-tagged Gal-4N, read-out: KD for ASF, AVI-tag
T6 construct: Tandem-repeat galectins consist of an N-terminal and a C-terminal carbohydrate recognition domain (CRD) interconnected with a peptide linker; His-tag; made in house; host or cells: E. coli
T6 sequence (P56470 19-150 limits assumed): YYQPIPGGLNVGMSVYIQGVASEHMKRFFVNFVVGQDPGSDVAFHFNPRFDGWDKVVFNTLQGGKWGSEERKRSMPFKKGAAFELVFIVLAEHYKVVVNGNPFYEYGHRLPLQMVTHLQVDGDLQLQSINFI
Method: as §1, §2

Gal-9 [8] = target: T1, Gal-9; assay: as above; settings: AVI-tagged Gal-9, read-out: KD for ASF, AVI-tag
Method: as §1, §2

Gal-8 [9] = target: T2, Gal-8; assay: as above; settings: AVI-tagged Gal-8, read-out: KD for ASF, AVI-tag
Method: as §1, §2

Gal-9N [10] = target: T7, Gal-9N (Homo sapiens, UniProt O00182, DELINS149-222HPP); assay: as above; settings: AVI-tagged Gal-9N, read-out: KD for ASF, AVI-tag
T7 construct: Tandem-repeat galectins consist of an N-terminal and a C-terminal carbohydrate recognition domain (CRD) interconnected with a peptide linker; His-tag; made in house; host or cells: E. coli
Method: as §1, §2

Gal-8N [11] = target: T8, Gal-8N (Homo sapiens, UniProt O00214); assay: as above; settings: AVI-tagged Gal-8N, read-out: KD for ASF, AVI-tag
T8 construct: Tandem-repeat galectins consist of an N-terminal and a C-terminal carbohydrate recognition domain (CRD) interconnected with a peptide linker; His-tag; made in house; host or cells: E. coli
T8 sequence (O00214 19-152 limits assumed): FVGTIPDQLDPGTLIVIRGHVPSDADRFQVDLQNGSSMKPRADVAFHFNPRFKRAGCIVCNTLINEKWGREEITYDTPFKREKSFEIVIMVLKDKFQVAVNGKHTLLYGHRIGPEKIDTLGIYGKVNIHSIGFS
Method: as §1, §2

Gal-4C [12] = target: T9, Gal-4C (Homo sapiens, UniProt P56470); assay: as above; settings: AVI-tagged Gal-4C, read-out: KD for ASF, AVI-tag
T9 construct: Tandem-repeat galectins consist of an N-terminal and a C-terminal carbohydrate recognition domain (CRD) interconnected with a peptide linker; His-tag; made in house; host or cells: E. coli
T9 sequence (P56470 194-323 limits assumed): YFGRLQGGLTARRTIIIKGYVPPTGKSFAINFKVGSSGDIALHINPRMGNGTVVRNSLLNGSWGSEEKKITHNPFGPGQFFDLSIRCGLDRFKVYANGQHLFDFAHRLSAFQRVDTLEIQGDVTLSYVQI
Method: as §1, §2

Gal-4N [13] = target: T6, Gal-4N; set-up: method as in ref 11 (a number printed in a supplementary file, which may have a reference list of its own: not looked up in the article's list); settings: direct ELISA; His-tagged Gal-4N; read-out: KD for ASF, His-tag; cited from earlier work
Gal-8N [14] = target: T8, Gal-8N; set-up: method as in ref 19 (a number printed in a supplementary file, which may have a reference list of its own: not looked up in the article's list); settings: direct ELISA; His-tagged Gal-8N; read-out: KD for ASF, His-tag; cited from earlier work
Gal-4 [15] = target: T3, Gal-4; set-up: method as in ref 11 (a number printed in a supplementary file, which may have a reference list of its own: not looked up in the article's list); settings: direct ELISA; His-tagged Gal-4; read-out: KD for ASF, His-tag; cited from earlier work
Gal-4C [16] = target: T9, Gal-4C; set-up: method as in ref 11 (a number printed in a supplementary file, which may have a reference list of its own: not looked up in the article's list); settings: direct ELISA; His-tagged Gal-4C; read-out: KD for ASF, His-tag; cited from earlier work
Gal-9 [17] = target: T1, Gal-9; set-up: method as in ref 19 (a number printed in a supplementary file, which may have a reference list of its own: not looked up in the article's list); settings: direct ELISA; His-tagged Gal-9; read-out: KD for ASF, His-tag; cited from earlier work
Gal-9N [18] = target: T7, Gal-9N; set-up: method as in ref 19 (a number printed in a supplementary file, which may have a reference list of its own: not looked up in the article's list); settings: direct ELISA; His-tagged Gal-9N; read-out: KD for ASF, His-tag; cited from earlier work
Gal-8 [19] = target: T2, Gal-8; set-up: method as in ref 19 (a number printed in a supplementary file, which may have a reference list of its own: not looked up in the article's list); settings: direct ELISA; His-tagged Gal-8; read-out: KD for ASF, His-tag; cited from earlier work
Gal-8C [20] = target: T4, Gal-8C; set-up: method as in ref 19 (a number printed in a supplementary file, which may have a reference list of its own: not looked up in the article's list); settings: direct ELISA; His-tagged Gal-8C; read-out: KD for ASF, His-tag; cited from earlier work
Gal-9C [21] = target: T5, Gal-9C; set-up: method as in ref 19 (a number printed in a supplementary file, which may have a reference list of its own: not looked up in the article's list); settings: direct ELISA; His-tagged Gal-9C; read-out: KD for ASF, His-tag; cited from earlier work

T1 sequence (O00182 with tags, fused parts or gaps DEL149-219/A222P): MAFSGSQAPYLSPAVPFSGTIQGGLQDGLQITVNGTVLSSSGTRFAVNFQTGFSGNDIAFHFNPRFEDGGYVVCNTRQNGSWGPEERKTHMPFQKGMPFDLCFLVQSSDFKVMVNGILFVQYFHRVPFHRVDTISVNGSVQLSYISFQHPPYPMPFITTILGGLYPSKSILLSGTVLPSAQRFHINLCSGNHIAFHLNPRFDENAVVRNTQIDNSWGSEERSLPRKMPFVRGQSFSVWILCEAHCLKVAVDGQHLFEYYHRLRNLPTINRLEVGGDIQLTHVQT
Sequence of Gal-1 (P09382 whole entry C3S): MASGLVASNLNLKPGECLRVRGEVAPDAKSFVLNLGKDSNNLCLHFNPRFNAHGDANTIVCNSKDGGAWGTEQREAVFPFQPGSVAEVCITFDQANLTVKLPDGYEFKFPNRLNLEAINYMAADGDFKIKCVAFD
T5 sequence (O00182 220-355 A222P): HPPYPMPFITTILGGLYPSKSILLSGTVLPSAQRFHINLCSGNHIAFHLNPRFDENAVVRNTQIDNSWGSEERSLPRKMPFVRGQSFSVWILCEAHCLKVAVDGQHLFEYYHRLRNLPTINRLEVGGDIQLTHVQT
Sequence of Gal-3 (P17931 whole entry): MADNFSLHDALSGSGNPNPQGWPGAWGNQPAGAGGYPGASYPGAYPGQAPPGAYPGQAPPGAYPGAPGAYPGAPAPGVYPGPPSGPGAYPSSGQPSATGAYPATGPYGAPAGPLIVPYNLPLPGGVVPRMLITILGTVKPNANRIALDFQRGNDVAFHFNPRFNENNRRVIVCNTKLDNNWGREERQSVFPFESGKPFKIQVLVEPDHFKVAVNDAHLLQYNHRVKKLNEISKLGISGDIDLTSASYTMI
T7 sequence (O00182 with tags, fused parts or gaps DELINS149-222HPP): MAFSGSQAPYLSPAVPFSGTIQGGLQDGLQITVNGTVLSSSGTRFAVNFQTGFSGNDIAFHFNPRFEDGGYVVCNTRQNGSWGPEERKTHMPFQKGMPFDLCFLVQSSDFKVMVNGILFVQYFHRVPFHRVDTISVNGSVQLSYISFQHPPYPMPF

CC(C)(C)OC(=O)NCCNC(=S)N[C@@H]1O[C@H](CO)[C@@H](O[C@@H]2O[C@H](CO)[C@H](O)[C@H](O)[C@H]2O)[C@H](O)[C@H]1O [Compound 1, (tert-butoxycarbonylamino)ethylthioureidyl β-D-galactopyranosyl-(1→4)-β-D-glucopyranoside]
IC50 (Gal-9 [1]): 2180 ± 670 µM | IC50 (Gal-8 [2]): 2.87 ± 0.47 mM | IC50 (Gal-1): 286 ± 23 µM | IC50 (Gal-4 [3]): 2.52 ± 0.18 mM | IC50 (Gal-3): 136 ± 18 µM

CC(=O)N[C@H]1[C@H](O[C@H]2[C@@H](O)[C@@H](CO)O[C@@H](O[C@H]3[C@H](O)[C@@H](O)[C@H](NC(=S)NCCNC(=O)OC(C)(C)C)O[C@@H]3CO)[C@@H]2O)O[C@H](CO)[C@@H](O[C@@H]2O[C@H](CO)[C@H](O)[C@H](O)[C@H]2O)[C@@H]1O [Compound 4, (tert-Butoxycarbonylamino)ethylthioureidyl β-D-galactopyranosyl-(1→4)-2-acetamido-2-deoxy-β-D-glucopyranosyl-(1→3)-β-D-galactopyranosyl-(1→4)-β-D-glucopyranoside]
IC50 (Gal-9 [1]): 170 µM and 168 µM | IC50 (Gal-8 [2]): 0.13 ± 0.03 mM | IC50 (Gal-1): 436 ± 41 µM | IC50 (Gal-4 [3]): 0.62 ± 0.1 mM | IC50 (Gal-3): 7.3 ± 1.6 µM

ASF: asialofetuin, glycoprotein immobilized on ELISA plates as galectin ligand
Kd (Gal-8C [4]): 11 ± 2 µM | Kd (Gal-9C [5]): 4.9 ± 0.4 µM | Kd (Gal-4 [6]): 2300 ± 800 nM | Kd (Gal-4N [7]): 17 ± 2 µM | Kd (Gal-9 [8]): 180 ± 50 nM | Kd (Gal-8 [9]): 320 ± 130 nM | Kd (Gal-9N [10]): 11 ± 4 µM | Kd (Gal-8N [11]): 4.6 ± 1.3 µM | Kd (Gal-4C [12]): 6.5 ± 1.2 µM | Kd (Gal-4N [13]): 38 ± 3 µM | Kd (Gal-8N [14]): 2300 ± 500 nM | Kd (Gal-4 [15]): 3.3 ± 1.1 µM | Kd (Gal-4C [16]): 19 ± 2 µM | Kd (Gal-9 [17]): 150 ± 40 nM | Kd (Gal-9N [18]): 25 ± 6 µM | Kd (Gal-8 [19]): 140 ± 60 nM | Kd (Gal-8C [20]): 9.4 ± 0.4 µM | Kd (Gal-9C [21]): 3.6 ± 0.5 µM
